According to patent publication US11795460B2, “Compositions and methods for TTR gene editing and treating ATTR amyloidosis” (Intellia Therapeutics, Inc., priority 2017, dated 2023):
Strand notation (5' to 3'): a small letter for the sugar, then the base; units joined by * are phosphorothioate-linked, units joined directly phosphodiester-linked; [ ] holds rarer units or linkages, { } end groups; capitals alone tell only the bases. m = 2'-O-methyl; r = 2'-OH (RNA)

B1: G000481: TTR sgRNA modified sequence, Human, SEQ ID No. 88; guide sequence of CR003345 (nucleic acid)
guide: mU*mC*mU*rArGrArArCrUrUrUrGrArCrCrArUrCrArGrGrUrUrUrUrArGrAmGmCmUmAmGmAmAmAmUmAmGmCrArArGrUrUrArArArArUrArArGrGrCrUrArGrUrCrCrGrUrUrArUrCrAmAmCmUmUmGmAmAmAmAmAmGmUmGmGmCmAmCmCmGmAmGmUmCmGmGmUmGmCmU*mU*mU*mU
B2: G000502: TTR Cyno specific sgRNA modified sequence, SEQ ID No. 114; guide sequence of CR000689; cross homologous between mouse and cyno (nucleic acid)
guide: mA*mC*mA*rCrArArArUrArCrCrArGrUrCrCrArGrCrGrGrUrUrUrUrArGrAmGmCmUmAmGmAmAmAmUmAmGmCrArArGrUrUrArArArArUrArArGrGrCrUrArGrUrCrCrGrUrUrArUrCrAmAmCmUmUmGmAmAmAmAmAmGmUmGmGmCmAmCmCmGmAmGmUmCmGmGmUmGmCmU*mU*mU*mU

Assays:
HuTTR V30M locus = experiment: Liver editing in humanized transgenic V30M mouse model of hereditary ATTR amyloidosis; assay type: in vivo; details: V30M humanized mice, single 1 mg/kg dose of LNP
Experimental: (§1) Unless otherwise noted, CD-1 female mice, ranging from 6-10 weeks of age were used in each study. Animals were weighed and grouped according to body weight for preparing dosing solutions based on group average weight. LNPs were dosed via the lateral tail vein in a volume of 0.2 mL per animal (approximately 10 mL per kilogram body weight). […] Body weight was measured at twenty-four hours post-administration, and animals were euthanized at various time points by exsanguination via cardiac puncture under isoflourane anesthesia. Blood was collected into serum separator tubes or into tubes containing buffered sodium citrate for plasma as described herein. […]
(§2) To quantitatively determine the efficiency of editing at the target location in the genome, sequencing was utilized to identify the presence of insertions and deletions introduced by gene editing. […]
(§3) Additional PCR was performed per the manufacturer's protocols (Illumina) to add chemistry for sequencing. […] The reads were aligned to a reference genome (e.g., the human reference genome (hg38), the cynomologus reference genome (mf5), the rat reference genome (rn6), or the mouse reference genome (mm10)) after eliminating those having low quality scores. […]

murine TTR = experiment: Liver editing in mice with murine TTR dosed with LNP formulations (Table 29); assay type: in vivo, mouse; details: wild type CD-1 mice; 1, 0.3, 0.1, 0.03, or 0.01 mg/kg; FIG. 15A
Experimental: as §1, §2, §3

Row | Molecule | Editing of TTR in livers (HuTTR V30M locus; 8 weeks post treatment) [%] | Share of editing events that were insertions (HuTTR V30M locus; remainder deletions) [%] | Liver editing, dose response (murine TTR)
1 | B1 | 49.4 | 96.8 | –
2 | B2 | – | – | A dose response for both editing and serum TTR levels was evident
